Assays:
[1] = molecular target: T1, EBNA3C (EBV) peptide on HLA-C*06:02 (human); experiment: cytokine release
T1 peptide: RRYRRIYDL

[2] = molecular target: T2, EBNA3C (EBV) peptide on HLA-C*06:02 (human); experiment: cytokine release
T2 peptide: AREAEVRFL

[3] = molecular target: T3, EBNA3C (EBV) peptide on HLA-C*06:02 (human); experiment: cytokine release
T3 peptide: LRGKWQRRY

[4] = molecular target: T4, EBNA3C (EBV) peptide on HLA-C*06:02 (human); experiment: cytokine release
T4 peptide: ERYAREAEV

[5] = molecular target: T5, EBNA3C (EBV) peptide on HLA-C*06:02 (human); experiment: cytokine release
T5 peptide: SRRRRGACV

[6] = molecular target: T6, EBNA3C (EBV) peptide on HLA-C*06:02 (human); experiment: cytokine release
T6 peptide: NLLDFVRFM

[7] = molecular target: T7, EBNA3C (EBV) peptide on HLA-C*06:02 (human); experiment: cytokine release
T7 peptide: RRRRGACVV

[8] = molecular target: T8, EBNA3C (EBV) peptide on HLA-C*06:02 (human); experiment: cytokine release
T8 peptide: VRFLRGKWQ

[9] = molecular target: T9, EBNA3C (EBV) peptide on HLA-C*06:02 (human); experiment: cytokine release
T9 peptide: RRRGACVVY

[10] = molecular target: T10, EBNA3C (EBV) peptide on HLA-C*06:02 (human); experiment: cytokine release
T10 peptide: QRRYRRIYD

[11] = molecular target: T11, EBNA3C (EBV) peptide on HLA-C*06:02 (human); experiment: cytokine release
T11 peptide: VRFMGVMSS

[12] = molecular target: T12, EBNA3C (EBV) peptide on HLA-C*06:02 (human); experiment: cytokine release
T12 peptide: YAREAEVRFL

[13] = molecular target: T13, EBNA3C (EBV) peptide on HLA-C*06:02 (human); experiment: cytokine release
T13 peptide: NRVGADSIM

[14] = molecular target: T14, EBNA3C (EBV) peptide on HLA-C*06:02 (human); experiment: cytokine release
T14 peptide: LHHIWQNLL

[15] = molecular target: T15, EBNA3C (EBV) peptide on HLA-C*06:02 (human); experiment: cytokine release
T15 peptide: RRGIKEHVI

[16] = molecular target: T16, EBNA3C (EBV) peptide on HLA-C*06:02 (human); experiment: cytokine release
T16 peptide: YRRIYDLIE

[17] = molecular target: T17, EBNA3C (EBV) peptide on HLA-C*06:02 (human); experiment: cytokine release
T17 peptide: RRYRRIYDLI

[18] = molecular target: T18, EBNA3C (EBV) peptide on HLA-C*06:02 (human); experiment: cytokine release
T18 peptide: ARRGIKEHV

[19] = molecular target: T19, EBNA3C (EBV) peptide on HLA-C*06:02 (human); experiment: cytokine release
T19 peptide: QRRYRRIYDL

[20] = molecular target: T20, EBNA3C (EBV) peptide on HLA-C*06:02 (human); experiment: cytokine release
T20 peptide: WQRRYRRIY

[21] = molecular target: T21, EBNA3C (EBV) peptide on HLA-C*06:02 (human); experiment: cytokine release
T21 peptide: FLRGKWQRRY

[22] = molecular target: T22, EBNA3C (EBV) peptide on HLA-C*06:02 (human); experiment: cytokine release
T22 peptide: RRGACVVYD

[23] = molecular target: T23, EBNA3C (EBV) peptide on HLA-C*06:02 (human); experiment: cytokine release
T23 peptide: VYDDDVIEV

[24] = molecular target: T24, EBNA3C (EBV) peptide on HLA-C*06:02 (human); experiment: cytokine release
T24 peptide: YAREAEVRF

[25] = molecular target: T25, EBNA3C (EBV) peptide on HLA-C*06:02 (human); experiment: cytokine release
T25 peptide: GCQNAARTL

[26] = molecular target: T26, EBNA3C (EBV) peptide on HLA-B*44:02 (human); experiment: cytokine release
T26 peptide: SERLVPEESY

[27] = molecular target: T27, EBNA3C (EBV) peptide on HLA-B*44:02 (human); experiment: cytokine release
T27 peptide: WLLTSPSQSW

[28] = molecular target: T28, EBNA3C (EBV) peptide on HLA-B*44:02 (human); experiment: cytokine release
T28 peptide: LLTSPSQSW

[29] = molecular target: T29, EBNA3C (EBV) peptide on HLA-B*44:02 (human); experiment: half-maximum IFN-gamma release; peptide titration on K562-HLA-B*44:02, ELISA after 24 h, E:T 1:1; full-length, on cells
T29 peptide: AEGGVGWRHW

[30] = molecular target: T30, LMP2A (EBV) peptide on HLA-A*02:01 (human); experiment: cytokine release
T30 peptide: MCLGGLLTMV

[31] = molecular target: T31, LMP2A (EBV) peptide on HLA-A*02:01 (human); experiment: half-maximum IFN-gamma release; peptide titration on K562-HLA-A*02:01, ELISA after 24 h, E:T 1:1; full-length, on cells
T31 peptide: CLGGLLTMV

[32] = molecular target: T31, LMP2A (EBV) peptide on HLA-A*02:01; experiment: the description's statement of this TCR's peptide sensitivity; K562-HLA-A*02:01 loaded with peptide, E:T 1:1; full-length, on cells
[33] = molecular target: T32, LMP1 (EBV) peptide on HLA-C*15:02 (human); experiment: cytokine release
T32 peptide: NSNEGRHHL

[34] = molecular target: T33, LMP1 (EBV) peptide on HLA-C*15:02 (human); experiment: cytokine release
T33 peptide: DSLPHPQQA

[35] = molecular target: T34, LMP1 (EBV) peptide on HLA-C*15:02 (human); experiment: cytokine release
T34 peptide: YLQQNWWTL

[36] = molecular target: T35, LMP1 (EBV) peptide on HLA-C*15:02 (human); experiment: half-maximum IFN-gamma release; peptide titration on K562-HLA-C*15:02, ELISA after 24 h, E:T 1:1; full-length, on cells
T35 peptide: QQNWWTLLV

[37] = molecular target: T36, LMP1 (EBV) peptide on HLA-B*57:01 (human); experiment: cytokine release
T36 peptide: WTLLVDLLW

[38] = molecular target: T37, LMP1 (EBV) peptide on HLA-B*57:01 (human); experiment: cytokine release
T37 peptide: IALYLQQNWW

[39] = molecular target: T38, LMP1 (EBV) peptide on HLA-B*57:01 (human); experiment: cytokine release
T38 peptide: WWTLLVDLLW

[40] = molecular target: T39, LMP1 (EBV) peptide on HLA-B*57:01 (human); experiment: cytokine release
T39 peptide: IIALYLQQNW

[41] = molecular target: T40, LMP1 (EBV) peptide on HLA-B*57:01 (human); experiment: cytokine release
T40 peptide: WTLLVDLLWL

[42] = molecular target: T41, LMP1 (EBV) peptide on HLA-B*57:01 (human); experiment: cytokine release
T41 peptide: LAILIWMYY

[43] = molecular target: T42, LMP1 (EBV) peptide on HLA-B*57:01 (human); experiment: cytokine release
T42 peptide: LLFLAILIW

[44] = molecular target: T43, LMP1 (EBV) peptide on HLA-B*57:01 (human); experiment: cytokine release
T43 peptide: LLLFLAILIW

[45] = molecular target: T44, LMP1 (EBV) peptide on HLA-B*57:01 (human); experiment: cytokine release
T44 peptide: LAILIWMYYH

[46] = molecular target: T45, LMP1 (EBV) peptide on HLA-B*57:01 (human); experiment: cytokine release
T45 peptide: ALYLQQNWW

[47] = molecular target: T46, LMP1 (EBV) peptide on HLA-B*57:01 (human); experiment: cytokine release
T46 peptide: FLAILIWMYY

[48] = molecular target: T47, LMP1 (EBV) peptide on HLA-B*57:01 (human); experiment: cytokine release
T47 peptide: NSNEGRHHL

[49] = molecular target: T48, LMP1 (EBV) peptide on HLA-B*57:01 (human); experiment: half-maximum IFN-gamma release; peptide titration on K562-HLA-B*57:01, ELISA after 24 h, E:T 1:1; full-length, on cells
T48 peptide: IALYLQQNW

B1: TCR64 (TCR, V domains shown)
Valpha: TQLLEQSPQFLSIQEGENLTVYCNSSSVFSSLQWYRQEPGEGPVLLVTVVTGGEVKKLKRLTFQFGDARKDSSLHITAAQPGDTGLYLCAGDVDTGTASKLTFGTGTRLQVTL
Vbeta: DVKVTQSSRYLVKRTGEKVFLECVQDMDHENMFWYRQDPGLGLRLIYFSYDVKMKEKGDIPEGYSVSREKKERFSLILESASTNQTSMYLCASSLLGSGALYEQYFGPGTRLTVT
binding result [1]: no recognition | binding result [2]: no recognition | binding result [3]: no recognition | binding result [4]: no recognition | binding result [5]: no recognition | binding result [6]: no recognition | binding result [7]: no recognition | binding result [8]: no recognition | binding result [9]: no recognition | binding result [10]: no recognition | binding result [11]: no recognition | binding result [12]: no recognition | binding result [13]: no recognition | binding result [14]: no recognition | binding result [15]: no recognition | binding result [16]: no recognition | binding result [17]: no recognition | binding result [18]: no recognition | binding result [19]: no recognition | binding result [20]: no recognition | binding result [21]: no recognition | binding result [22]: no recognition | binding result [23]: no recognition | binding result [24]: no recognition | binding result [25]: no recognition

B2: TCR58 (TCR, V domains shown)
Valpha: RKEVEQDPGPFNVPEGATVAFNCTYSNSASQSFFWYRQDCRKEPKLLMSVYSSGNEDGRFTAQLNRASQYISLLIRDSKLSDSATYLCVASGDSSYKLIFGSGTRLLVRP
Vbeta: EPEVTQTPSHQVTQMGQEVILRCVPISNHLYFYWYRQILGQKVEFLVSFYNNEISEKSEIFDDQFSVERPDGSNFTLKIRSTKLEDSAMYFCASSDPLSTYNEQFFGPGTRLTVL
binding result [26]: no recognition | binding result [27]: no recognition | binding result [28]: no recognition | EC50 of peptide [29]: 300 nM

B3: TCR06 (TCR, V domains shown)
Valpha: KQEVTQIPAALSVPEGENLVLNCSFTDSAIYNLQWFRQDPGKGLTSLLLIQSSQREQTSGRLNASLDKSSGRSTLYIAASQPGDSATYLCAVLMDSNYQLIWGAGTKLIIKP
Vbeta: DAGITQSPRYKITETGRQVTLMCHQTWSHSYMFWYRQDLGHGLRLIYYSAAADITDKGEVPDGYVVSRSKTENFPLTLESATRSQTSVYFCASSEDGMNTEAFFGQGTRLTVV
binding result [30]: recognises | EC50 of peptide [31]: 6 nM | EC50 of peptide [32]: ≤ 10 nM

B4: TCR83 (TCR, V domains shown)
Valpha: GQNIDQPTEMTATEGAIVQINCTYQTSGFNGLFWYQQHAGEAPTFLSYNVLDGLEEKGRFSSFLSRSKGYSYLLLKELQMKDSASYLCAAVNNAGNMLTFGGGTRLMVKP
Vbeta: DTAVSQTPKYLVTQMGNDKSIKCEQNLGHDTMYWYKQDSKKFLKIMFSYNNKELIINETVPNRFSPKSPDKAHLNLHINSLELGDSAVYFCASSQGYGGPSTDTQYFGPGTRLTVL
binding result [33]: no recognition | binding result [34]: no recognition | binding result [35]: no recognition | EC50 of peptide [36]: 2 nM

B5: TCR50 (TCR, V domains shown)
Valpha: AQSVTQLDSHVSVSEGTPVLLRCNYSSSYSPSLFWYVQHPNKGLQLLLKYTSAATLVKGINGFEAEFKKSETSFHLTKPSAHMSDAAEYFCVVMATGFQKLVFGTGTRLLVSP
Vbeta: DSGVTQTPKHLITATGQRVTLRCSPRSGDLSVYWYQQSLDQGLQFLIQYYNGEERAKGNILERFSAQQFPDLHSELNLSSLELGDSALYFCASSVTSGSDEQFFGPGTRLTVL
binding result [37]: no recognition | binding result [38]: recognises | binding result [39]: no recognition | binding result [40]: recognises | binding result [41]: no recognition | binding result [42]: no recognition | binding result [43]: no recognition | binding result [44]: no recognition | binding result [45]: no recognition | binding result [46]: recognises | binding result [47]: no recognition | binding result [48]: no recognition | EC50 of peptide [49]: 30 nM

B6: TCR25 (TCR, V domains shown)
Valpha: AQSVTQLDSHVSVSEGTPVLLRCNYSSSYSPSLFWYVQHPNKGLQLLLKYTSAATLVKGINGFEAEFKKSETSFHLTKPSAHMSDAAEYFCVAWDTGFQKLVFGTGTRLLVSP
Vbeta: EPEVTQTPSHQVTQMGQEVILRCVPISNHLYFYWYRQILGQKVEFLVSFYNNEISEKSEIFDDQFSVERPDGSNFTLKIRSTKLEDSAMYFCASKALADTQYFGPGTRLTVL
binding result [26]: no recognition | binding result [27]: no recognition | binding result [28]: no recognition | EC50 of peptide [29]: 600 nM

Source: patent US20220267407A1 (published 2022)
